Measured values reported in FireProtDB (doi:10.1016/j.str.2006.07.007).

B1: Azurin, P00282 (parent)
chain: MLRKLAAVSLLSLLSAPLLAAECSVDIQGNDQMQFNTNAITVDKSCKQFTVNLSHPGNLPKNVMGHNWVLSTAADMQGVVTDGMASGLDKDYLKPDDSRVIAHTKLIGSGEKDSVTFDVSKLKEGEQYMFFCTFPGHSALMKGTLTLK

Variants of: B1
Conditions: Pseudomonas aeruginosa (strain ATCC 15692 / DSM 22644 / CIP 104116 / JCM 14847 / LMG 12228 / 1C / PRS 101 / PAO1); pH 7; 25 °C; GdnHCl; Fluorescence; Phosphate 100 mM; reversible: Yes; structure 5AZU; whole UniProt chain shown

L145A
ddG of mutation (higher = less stable): 0.72 kcal/mol
unfolding free energy: 5.26 kcal/mol

V80G
ddG of mutation (higher = less stable): 3.11 kcal/mol
unfolding free energy: 2.87 kcal/mol

A102G
ddG of mutation (higher = less stable): 3.11 kcal/mol
unfolding free energy: 2.87 kcal/mol

I27A
ddG of mutation (higher = less stable): 3.11 kcal/mol
unfolding free energy: 2.87 kcal/mol

V25A
ddG of mutation (higher = less stable): 0 kcal/mol
unfolding free energy: 5.98 kcal/mol
